Article PMC12607630, “ZapC crosslinks FtsZ filaments through a dual-binding mechanism modulated by the intrinsically disordered linker of FtsZ in Escherichia coli” (mBio, 2025)
Several values for one entry are separate records, joined by “and”; a condition that tells them apart may be missing. Identical values can stand only once.

B1: ZapC (untagged) (natural protein)
chain: not shown
notes: ZapC, FtsZ-associated protein of Escherichia coli; source: E. coli BL21(DE3), plasmid pLY28, purified (Ni-NTA); 6×His-SUMO tag removed with Ulp1; not shown: 6×His-SUMO, N-terminal, cleaved
B3: FtsZ (wild-type, untagged) (natural protein, Escherichia coli, UniProt P0A9A6 1-383, looked up)
chain: MFEPMELTNDAVIKVIGVGGGGGNAVEHMVRERIEGVEFFAVNTDAQALRKTAVGQTIQIGSGITKGLGAGANPEVGRNAADEDRDALRAALEGADMVFIAAGMGGGTGTGAAPVVAEVAKDLGILTVAVVTKPFNFEGKKRMAFAEQGITELSKHVDSLITIPNDKLLKVLGRGISLLDAFGAANDVLKGAVQGIAELITRPGLMNVDFADVRTVMSEMGYAMMGSGVASGEDRAEEAAEMAISSPLLEDIDLSGARGVLVNITAGFDLRLDEFETVGNTIRAFASDNATVVIGTSLDPDMNDELRVTVVATGIGMDKRPEITLVTNKQVQQPVMDRYQQHGMAPLTQEQKPVAKVVNDNAPQTAKEPDYLDIPAFLRKQAD
notes: FtsZ, Escherichia coli; Made from the same 6×his-sumo-ftsZ plasmid as the fusion that the methods call full-length FtsZ; also called wild-type FtsZ; untagged FtsZ; source: E. coli BL21(DE3), plasmid pLY17, purified (Ni-NTA; 6×His-SUMO tag removed with Ulp1); not shown: 6×His, N-terminal, cleaved; SUMO, N-terminal, cleaved
B4: 6×His-ZapC (natural protein)
chain: not shown
notes: ZapC, Escherichia coli; also called His-tagged ZapC; source: E. coli, plasmid pSD323 (pQE80, Plac::6×His-ZapC), purified (Ni-NTA) as for FtsZ; not shown: 6×His, N-terminal, kept
B8: ZapC (untagged) (natural protein)
chain: not shown
notes: ZapC, Escherichia coli; also called untagged ZapC; source: E. coli, plasmid pLY28 (pE-SUMO-Amp, PT7::6×his-sumo-zapC), purified (Ni-NTA; 6×His-SUMO tag removed with Ulp1); not shown: 6×His, N-terminal, cleaved; SUMO, N-terminal, cleaved

What was measured:
Settings in all cases: both partners purified
6×His-SUMO-FtsZ = biological target: T1, 6×His-SUMO-FtsZ (Escherichia coli, UniProt P0A9A6 1-383); assay: BLI; 6×His-SUMO fusions of FtsZ or its parts, or SUMO alone (0.5 µM), held on Ni-NTA biosensors, untagged ZapC in solution; Octet-Red96, 30°C, 1× Pol buffer (50 mM HEPES-NaOH pH 6.8, 50 mM KCl, 10 mM MgCl2); apparent Kd from the signal at the end of association against concentration, one-site fit; three repeats with mean (X) and SD
T1 construct: FtsZ of Escherichia coli, full length, fused behind 6×His-SUMO; Forward primer BsaI-out-F starts the FtsZ insert at codon 2; source: E. coli BL21(DE3), plasmid pLY17, purified (Ni-NTA); not shown: 6×His-SUMO, N-terminal, kept
T1 sequence (looked up): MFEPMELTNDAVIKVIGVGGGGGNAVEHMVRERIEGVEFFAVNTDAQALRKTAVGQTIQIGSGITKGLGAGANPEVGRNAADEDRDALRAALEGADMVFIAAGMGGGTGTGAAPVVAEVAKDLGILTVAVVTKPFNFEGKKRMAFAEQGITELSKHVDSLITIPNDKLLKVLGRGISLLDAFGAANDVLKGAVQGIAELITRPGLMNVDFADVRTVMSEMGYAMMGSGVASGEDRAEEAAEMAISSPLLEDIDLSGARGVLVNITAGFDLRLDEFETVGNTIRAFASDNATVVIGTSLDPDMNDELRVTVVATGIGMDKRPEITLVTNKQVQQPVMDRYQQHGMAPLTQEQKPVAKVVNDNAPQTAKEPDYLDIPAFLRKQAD

6×His-ZapC = biological target: B4; assay: BLI; 6×His-ZapC or its mutants (0.5 µM) loaded on Ni-NTA biosensors; FtsZ or its variants in solution; Octet-Red96, 30°C, 1× Pol buffer (50 mM HEPES-NaOH pH 6.8, 50 mM KCl, 10 mM MgCl2); apparent Kd from the signal at the end of association, one-site fit
[1] = biological target: T2, 6×His-ZapC double mutant (F30D, K94D) (Escherichia coli, UniProt P75862 1-180, F30D | K94D); assay: as above
T2 construct: ZapC, Escherichia coli; The text calls it only 'the double mutant' after naming ZapC^F30D and ZapC^K94D; also called the double mutant; source: E. coli, derivative of pSD323, purified (Ni-NTA) as for FtsZ; not shown: 6×His, N-terminal, kept

[2] = biological target: B3; assay: as above
FtsZ^F285S (untagged) = biological target: T3, FtsZ^F285S (untagged) (Escherichia coli, UniProt P0A9A6 1-383, F285S); assay: as above
T3 construct: FtsZ, Escherichia coli; source: E. coli BL21(DE3), derivative of pLY17, purified (Ni-NTA; 6×His-SUMO tag removed with Ulp1); not shown: 6×His, N-terminal, cleaved; SUMO, N-terminal, cleaved
T3 sequence (looked up): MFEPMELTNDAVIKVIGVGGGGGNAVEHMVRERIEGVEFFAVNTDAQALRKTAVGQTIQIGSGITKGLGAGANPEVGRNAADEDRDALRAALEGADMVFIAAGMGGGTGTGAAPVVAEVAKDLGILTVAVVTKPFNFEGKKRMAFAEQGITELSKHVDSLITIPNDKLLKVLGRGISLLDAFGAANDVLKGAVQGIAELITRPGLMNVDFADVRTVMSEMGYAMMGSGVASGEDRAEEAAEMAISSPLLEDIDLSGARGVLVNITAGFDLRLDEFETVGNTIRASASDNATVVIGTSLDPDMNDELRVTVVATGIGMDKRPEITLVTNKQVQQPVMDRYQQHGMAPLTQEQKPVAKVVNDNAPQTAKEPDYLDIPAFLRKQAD

[3] = biological target: T4, FtsZ (untagged, wild type) (Escherichia coli, UniProt P0A9A6 1-383); assay: BLI; 6×His-ZapC or its mutants (0.5 µM) loaded on Ni-NTA biosensors, untagged FtsZ or its variants in solution; Octet-Red96, 30°C, 1× Pol buffer (50 mM HEPES-NaOH pH 6.8, 50 mM KCl, 10 mM MgCl2); apparent Kd from the signal at the end of association against concentration, one-site fit; three repeats with mean (X) and SD
T4 construct: also called wild-type FtsZ; source: E. coli BL21(DE3), plasmid pLY17, purified (Ni-NTA); 6×His-SUMO tag removed with Ulp1; not shown: 6×His-SUMO, N-terminal, cleaved
T4 sequence (looked up): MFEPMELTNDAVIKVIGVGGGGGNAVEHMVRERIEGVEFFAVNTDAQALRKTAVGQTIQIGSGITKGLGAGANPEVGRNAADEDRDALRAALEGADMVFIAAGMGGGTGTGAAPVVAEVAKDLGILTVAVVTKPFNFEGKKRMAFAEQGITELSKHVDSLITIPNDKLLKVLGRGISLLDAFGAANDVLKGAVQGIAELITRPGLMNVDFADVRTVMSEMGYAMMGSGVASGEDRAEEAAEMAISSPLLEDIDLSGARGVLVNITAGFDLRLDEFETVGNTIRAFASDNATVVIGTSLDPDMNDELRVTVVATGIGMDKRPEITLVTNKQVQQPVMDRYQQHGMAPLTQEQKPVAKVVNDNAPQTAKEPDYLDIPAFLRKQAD

ZapC (untagged) [4] = biological target: B1; assay: BLI; 6×His-SUMO fusions of FtsZ or its parts, or SUMO alone (0.5 µM), held on Ni-NTA biosensors, untagged ZapC in solution; Octet-Red96, 30°C, 1× Pol buffer (50 mM HEPES-NaOH pH 6.8, 50 mM KCl, 10 mM MgCl2); apparent Kd from the signal at the end of association against concentration, one-site fit; three repeats with mean (X) and SD
ZapC (untagged) [5] = biological target: B8; assay: BLI; SUMO fusions of FtsZ or its parts, or SUMO alone (0.5 µM), held on Ni-NTA biosensors; untagged ZapC in solution; Octet-Red96, 30°C, 1× Pol buffer; apparent Kd from the signal at the end of association, one-site fit
SUMO-FtsZ = biological target: T5, SUMO-FtsZ (Escherichia coli, UniProt P0A9A6 1-383); assay: as above
T5 construct: FtsZ, Escherichia coli; also called 6×His-SUMO-FtsZ; SUMO fusion containing full-length FtsZ; source: E. coli BL21(DE3), plasmid pLY17 (pE-SUMO-Amp, PT7::6×his-sumo-ftsZ), purified (Ni-NTA); not shown: 6×His, N-terminal, kept; SUMO, N-terminal, kept
T5 sequence (looked up): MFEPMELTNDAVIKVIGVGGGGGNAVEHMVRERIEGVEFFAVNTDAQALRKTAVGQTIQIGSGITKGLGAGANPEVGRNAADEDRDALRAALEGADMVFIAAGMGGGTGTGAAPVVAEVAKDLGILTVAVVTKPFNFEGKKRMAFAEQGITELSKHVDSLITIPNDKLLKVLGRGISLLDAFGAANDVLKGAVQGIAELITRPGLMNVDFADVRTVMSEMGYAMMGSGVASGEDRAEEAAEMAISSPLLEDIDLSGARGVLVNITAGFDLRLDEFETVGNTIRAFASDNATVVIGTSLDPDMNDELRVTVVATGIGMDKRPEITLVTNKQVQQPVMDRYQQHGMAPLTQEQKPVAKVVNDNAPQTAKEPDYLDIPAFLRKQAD

**Q.** B1 was tested. Which Kd (6×His-SUMO-FtsZ) did it give?
**A.** Its Kd is 1.5 µM and 1.28 µM and 1.9 µM and 1.56 µM.

B2: FtsZ^1–370 (domain or fragment, Escherichia coli, UniProt P0A9A6 1-370, looked up)
chain: MFEPMELTNDAVIKVIGVGGGGGNAVEHMVRERIEGVEFFAVNTDAQALRKTAVGQTIQIGSGITKGLGAGANPEVGRNAADEDRDALRAALEGADMVFIAAGMGGGTGTGAAPVVAEVAKDLGILTVAVVTKPFNFEGKKRMAFAEQGITELSKHVDSLITIPNDKLLKVLGRGISLLDAFGAANDVLKGAVQGIAELITRPGLMNVDFADVRTVMSEMGYAMMGSGVASGEDRAEEAAEMAISSPLLEDIDLSGARGVLVNITAGFDLRLDEFETVGNTIRAFASDNATVVIGTSLDPDMNDELRVTVVATGIGMDKRPEITLVTNKQVQQPVMDRYQQHGMAPLTQEQKPVAKVVNDNAPQTAKEPD
notes: FtsZ, Escherichia coli, residues 1-370; Plasmid construction is in the Supplemental Information; also called FtsZ lacking the CTP; source: E. coli BL21(DE3), SUMO-tag purification system, purified; not shown: 6×His, N-terminal, cleaved; SUMO, N-terminal, cleaved
**Q.** How did the “fold decrease of affinity against wild-type FtsZ” value (6×His-ZapC) turn out when B2 was run?
**A.** The value was roughly 3 fold.

**Q.** For B3, which “fold increase of Kd against wild-type ZapC” value [1] is on record?
**A.** The value was 12 fold.

**Q.** For B4, which Kd [2] is on record?
**A.** The Kd was 0.39 µM.

**Q.** What about the Kd (FtsZ^F285S (untagged)) of the same binder?
**A.** The Kd was 6.37 µM.

B5: 6×His-ZapC F30D, K94D (natural protein)
chain: not shown
notes: ZapC of Escherichia coli with F30D and K94D; Derivative of pSD323 by site-directed mutagenesis; also called ZapC^F, K; -ZapCF, K; source: E. coli, plasmid pLY317 (pQE80L, Plac::6Xhis-zapC F30D, K94D), purified (Ni-NTA); not shown: His6, N-terminal, kept
**Q.** Which Kd [3] does the source give for B5 here?
**A.** The Kd was 6.39 µM and 5.16 µM and 4.77 µM and 5.44 µM.

B6: 6×His-SUMO-FtsZ 316-383 (domain or fragment, Escherichia coli, UniProt P0A9A6 316-383, looked up)
chain: GMDKRPEITLVTNKQVQQPVMDRYQQHGMAPLTQEQKPVAKVVNDNAPQTAKEPDYLDIPAFLRKQAD
notes: source: E. coli BL21(DE3), plasmid pLY342, purified (Ni-NTA); not shown: 6×His-SUMO, N-terminal, kept
**Q.** With B6 as the binder, how does the Kd (ZapC (untagged) [4]) read?
**A.** The Kd was 11.2 µM and 10.4 µM and 8.11 µM and 9.89 µM.

B7: SUMO-FtsZ^316-383 (domain or fragment, Escherichia coli, UniProt P0A9A6 316-383, looked up)
chain: GMDKRPEITLVTNKQVQQPVMDRYQQHGMAPLTQEQKPVAKVVNDNAPQTAKEPDYLDIPAFLRKQAD
notes: Held on Ni-NTA biosensors; plasmid construction is in the Supplemental Information; also called SUMO fusion containing the CTL and CTP; source: E. coli, purified SUMO fusion; not shown: 6×His, N-terminal, kept; SUMO, N-terminal, kept
**Q.** B7 was tested. Which Kd (ZapC (untagged) [5]) did it give?
**A.** Its Kd is 10 µM.

**Q.** B8 was tested. Which Kd (SUMO-FtsZ) did it give?
**A.** The Kd was 1.5 µM.
